# Reference: the supplement of paper PMC11780869
# Tested on: Bacillus subtilis
# Assay: cleaved RNA product abundance (RNA/gDNA barcode ratio) relative to median wild-type variant (ratio to wild type); higher = more accumulation of the downstream cleavage product
# Details: cleavage site: cggR-gapA (positions -7 to +36 mutated)
# How it was run: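 Cleaved product abundance for each construct is its RNA-to-gDNA barcode ratio, scaled to the median construct carrying the unmutated site. Cleaved RNA was isolated on a gel, reverse transcribed and barcode-sequenced, with genomic DNA barcodes sequenced alongside and UMIs collapsed. The reporters were truncated aprE or tetM mRNAs with barcoded, mutagenized RNase Y cleavage-site windows integrated into the B. subtilis chromosome, and cultures grew in LB at 37°C from OD600 0.0003 to 0.3.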
# [1] = experiment (reporter, strain, medium): exp 2b: truncated aprE reporter, strain BJT200
# [2] = experiment (reporter, strain, medium): exp 4a: truncated aprE reporter, strain BJT201 with 2% xylose (RNase J1 expressed)
Sequence,cleaved RNA product abundance [1],cleaved RNA product abundance [2],"cleaved RNA product abundance (experiment (reporter, strain, medium): exp 6: tetM reporter, strain 168)"
ACAGACGAAGGAGCCGCAAAGAAGTTATTAAGTGATGAATAATCCTTCAATATAAATATCTCTCACTTATTTAAA,0.112,0.145,
ACAGACGAAGGAGCCGCAAAGAAGTTATTAAGTGATGAATAATCGCTCAATATAAATATCTCTCACTTATTTAAA,0.522,,
ACAGACGAAGGAGCCGCAAAGAAGTTATTAAGTGATGAATAATCTCTCAATATAAATATCTCTCACTTATTTAAA,0.113,0.172,
ACAGACGAAGGAGCCGCAAAGAAGTTATTAAGTGATGAATAATGCCTCAATATAAATATCTCTCACTTATTTAAA,0.1,,
ACAGACGAAGGAGCCGCAAAGAAGTTATTAAGTGATGAATAATTCCTCAATATAAATATCTCTCACTTATTTAAA,0.0685,0.14,
ACAGACGAAGGAGCCGCAAAGAAGTTATTAAGTGATGAATACTCCCTCAATATAAATATCTCTCACTTATTTAAA,,0.181,
ACAGACGAAGGAGCCGCAAAGAAGTTATTAAGTGATGAATAGTCCCTCAATATAAATATCTCTCACTTATTTAAA,,0.14,
ACAGACGAAGGAGCCGCAAAGAAGTTATTAAGTGATGAATATTCCCTAAATATAAATATCTCTCACTTATTTAAA,0.115,,
ACAGACGAAGGAGCCGCAAAGAAGTTATTAAGTGATGAATATTCCCTCAATATAAATATCTCTCACTTATTTAAA,,0.102,
ACAGACGAAGGAGCCGCAAAGAAGTTATTAAGTGATGAATCATCCCTCAATATAAATATCTCTCACTTATTTAAA,0.125,0.147,
ACAGACGAAGGAGCCGCAAAGAAGTTATTAAGTGATGAATTATCCCTCAATATAAATATCTCTCACTTATTTAAA,0.104,0.249,
ACAGACGAAGGAGCCGCAAAGAAGTTATTAAGTGATGACTAATCCCTCAATATAAATATCTCTCACTTATTTAAA,0.081,0.111,
ACAGACGAAGGAGCCGCAAAGAAGTTATTAAGTGATGATTAATCCCTCAATATAAATATCTCTCACTTATTTAAA,0.112,,
ACAGACGAAGGAGCCGCAAAGAAGTTATTAAGTGATGTATAATCCCTCAATATAAATATCTCTCACTTATTTAAA,0.088,0.144,
ACAGACGAAGGAGCCGCAAAGAAGTTATTAAGTGATTAATAATCCCTCAATATAAATATCTCTCACTTATTTAAA,0.112,0.0979,
ACAGACGAAGGAGCCGCAAAGAAGTTATTAAGTGGTGAATAATCCCTCAATATAAATATCTCTCACTTATTTAAA,,0.103,
ACAGACGAAGGAGCCGCAAAGAAGTTATTAAGTGTTGAATAATCCCTTAATATAAATATCTCTCACTTATTTAAA,,0.146,
ACAGACGAAGGAGCCGCAAAGAAGTTATTAAGTTATGAATAATCCCTCAATATAAATAACTCTCACTTATTTAAA,,0.117,
ACAGACGAAGGAGCCGCAAAGAAGTTATTAAGTTATGAATAATCCCTCAATATAAATATCTCTCACTTATTTAAA,0.0915,0.13,

Sequence,cleaved RNA product abundance [1],cleaved RNA product abundance [2],"cleaved RNA product abundance (experiment (reporter, strain, medium): exp 6: tetM reporter, strain 168)"
ACAGACGAAGGAGCCGCAAAGAAGTTATTAAGTTATGAATAATCCGTCAATATAAATATCTCTCACTTATTTAAA,0.078,,
ACAGACGAAGGAGCCGCAAAGAAGTTATTAATAGATGAATAATCCCTCAATATAAATATCTCTCACTTATTTAAA,0.0972,0.116,
ACAGACGAAGGAGCCGCAAAGAAGTTATTAATAGATTAATAATCCCTCAATATAAATATCTCTCACTTATTTAAA,,0.135,
ACAGACGAAGGAGCCGCAAAGAAGTTATTAATCGATGAATAATCCCTCAATATAAATATCTCTCACTTATTTAAA,,0.164,
ACAGACGAAGGAGCCGCAAAGAAGTTATTAATGAATGAATAAACCCTCAATATAAATATCTCTCACTTATTTAAA,,0.133,
ACAGACGAAGGAGCCGCAAAGAAGTTATTAATGAATGAATAATCCCTCAATATAAATATCTCTCACTTATTTAAA,0.0941,0.137,
ACAGACGAAGGAGCCGCAAAGAAGTTATTAATGCATGAATAATCCCTCAATATAAATATCTCTCACTTATTTAAA,0.0867,0.0823,
ACAGACGAAGGAGCCGCAAAGAAGTTATTAATGGAAGAATAATCCCTCAATATAAATATCTCTCACTTATTTAAA,0.0884,0.114,
ACAGACGAAGGAGCCGCAAAGAAGTTATTAATGGACGAATAATCCCTCAATATAAATATCTCTCACTTATTTAAA,0.0737,0.0953,
ACAGACGAAGGAGCCGCAAAGAAGTTATTAATGGATAAATAATCCCTCAATATAAATATCTCTCACTTATTTAAA,0.102,0.116,
ACAGACGAAGGAGCCGCAAAGAAGTTATTAATGGATCAATAATCCCTCAATATAAATATCTCTCACTTATTTAAA,0.0839,0.127,
ACAGACGAAGGAGCCGCAAAGAAGTTATTAATGGATGAAAAATCCCTCAATATAAATATCTCTCACTTATTTAAA,0.111,0.166,
ACAGACGAAGGAGCCGCAAAGAAGTTATTAATGGATGAACAATCCCTCAATATAAATATCTCTCACTTATTTAAA,,0.143,
ACAGACGAAGGAGCCGCAAAGAAGTTATTAATGGATGAATAAACCCTCAATATAAATATCTCTCACTTATTTAAA,0.0999,0.107,
ACAGACGAAGGAGCCGCAAAGAAGTTATTAATGGATGAATAACCCCTCAATATAAATATCTCTCACTTATTTAAA,0.0893,0.0925,
ACAGACGAAGGAGCCGCAAAGAAGTTATTAATGGATGAATAAGCCCTCAATATAAATATCTCTCACTTATTTAAA,,0.107,
ACAGACGAAGGAGCCGCAAAGAAGTTATTAATGGATGAATAATACCTCAATATAAATATCTCTCACTTATTTAAA,0.0824,0.126,
ACAGACGAAGGAGCCGCAAAGAAGTTATTAATGGATGAATAATCACTCAATATAAATATCTCTCACTTATTTAAA,0.106,0.141,
ACAGACGAAGGAGCCGCAAAGAAGTTATTAATGGATGAATAATCACTTAATATAAATATCTCTCACTTATTTAAA,,0.194,

Sequence,cleaved RNA product abundance [1],cleaved RNA product abundance [2],"cleaved RNA product abundance (experiment (reporter, strain, medium): exp 6: tetM reporter, strain 168)"
ACAGACGAAGGAGCCGCAAAGAAGTTATTAATGGATGAATAATCCATCAATATAAATATCTCTCACTTATTTAAA,0.667,1.21,
ACAGACGAAGGAGCCGCAAAGAAGTTATTAATGGATGAATAATCCCACAATATAAATATCTCTCACTTATTTAAA,0.0949,0.156,
ACAGACGAAGGAGCCGCAAAGAAGTTATTAATGGATGAATAATCCCCCAATATAAATATCTCTCACTTATTTAAA,0.0983,0.122,
ACAGACGAAGGAGCCGCAAAGAAGTTATTAATGGATGAATAATCCCGCAATATAAATATCTCTCACTTATTTAAA,,0.144,
ACAGACGAAGGAGCCGCAAAGAAGTTATTAATGGATGAATAATCCCTAAATATAAATATCTCTCACTTATTTAAA,0.163,0.196,
ACAGACGAAGGAGCCGCAAAGAAGTTATTAATGGATGAATAATCCCTCAAAATAAATATCTCTCACTTATTTAAA,0.11,0.151,
ACAGACGAAGGAGCCGCAAAGAAGTTATTAATGGATGAATAATCCCTCAACATAAATATCTCTCACTTATTTAAA,,0.101,
ACAGACGAAGGAGCCGCAAAGAAGTTATTAATGGATGAATAATCCCTCAAGATAAATATCTCTCACTTATTTAAA,0.0884,0.0994,
ACAGACGAAGGAGCCGCAAAGAAGTTATTAATGGATGAATAATCCCTCAATAAAAATATCTCTCACTTATTTAAA,0.136,0.108,
ACAGACGAAGGAGCCGCAAAGAAGTTATTAATGGATGAATAATCCCTCAATAGAAATATCTCTCACTTATTTAAA,,0.0769,
ACAGACGAAGGAGCCGCAAAGAAGTTATTAATGGATGAATAATCCCTCAATATAAAAATCTCTCACTTATTTAAA,0.133,0.156,
ACAGACGAAGGAGCCGCAAAGAAGTTATTAATGGATGAATAATCCCTCAATATAAACATCTCTCACTTATTTAAA,,0.116,
ACAGACGAAGGAGCCGCAAAGAAGTTATTAATGGATGAATAATCCCTCAATATAAAGATCTCTCACTTATTTAAA,,0.0975,
ACAGACGAAGGAGCCGCAAAGAAGTTATTAATGGATGAATAATCCCTCAATATAAATAACTCTCACTTATTTAAA,0.115,0.23,
ACAGACGAAGGAGCCGCAAAGAAGTTATTAATGGATGAATAATCCCTCAATATAAATATCTCTCACTTATTTAAA,0.122,0.155,0.174
ACAGACGAAGGAGCCGCAAAGAAGTTATTAATGGATGAATAATCCCTCAATATAAATGTCTCTCACTTATTTAAA,0.107,0.194,
ACAGACGAAGGAGCCGCAAAGAAGTTATTAATGGATGAATAATCCCTCAATATAAATTTCTCTCACTTATTTAAA,0.112,0.138,
ACAGACGAAGGAGCCGCAAAGAAGTTATTAATGGATGAATAATCCCTCAATATAACTATCTCTCACTTATTTAAA,,0.072,
ACAGACGAAGGAGCCGCAAAGAAGTTATTAATGGATGAATAATCCCTCAATATAATTATCTCTCACTTATTTAAA,0.13,0.108,
